# From patent US12630630 (SHANGHAI HENLIUS BIOTECH, dated 2026)
# Target: T1, CD47 on human cells (Raji, Jurkat, red blood cells) (human, UniProt Q08722 19-311)
# T1 construct: Endogenous CD47 on Raji, Jurkat and red blood cells; also called IAP; MER6
# Experiment: flow cytometry competition: antibody and a fixed concentration of biotin-human SIRPα-Fc co-incubated with CD47-expressing cells (Jurkat in Example 2; the legend also names Raji), streptavidin-PE
# Description: Example 2. […] CD47-expressing cells (Jurkat) (1E5 cells/well) were washed and resuspended in FACS buffer (1×PBS with 2% FBS). […] Flow cytometric analyses were performed using the Cytomics FC 500 (Beckman Coulter Inc.).
# IgG isotype control (an anti-PD1 antibody) were used as a negative control.
row,Binder,IC50 (read off the curve) [µg/mL]
1,"Clone M1 (antibody, human IgG4 S228P, lambda, V domains shown, also called antibody clone M1) VH: QVQLQQWGAGLLKPSETLSLTCAVYGGSFSGYYWSWIRQPPGKGLEWIGEINHSGSTNYNPSLKSRVTISVDTSKNQFSLRLSSVTAADTAMYYCARFTGRPYYGMDVWGQGTTVTVSS VL: LSYELTQPPSVSATPGQRVTISCSGSESNIGSHKVKWYQQFAGAAPRLLIHGNDQRRSGVPDRFSGSKSGTSASLAISGLQSEDEADYYCAAWDDSLNGRVFGGGTKLTVLG",~1
2,"Clone M1 #46 (antibody, human IgG4 S228P, lambda, V domains shown) VH: QVQLQQWGAGLLKPSETLSLTCAVYGGSFSGYYWSWIRQPPGKGLEWIGEINHSGSTNYNPSLKSRVTISVDTSKNQFSLRLSSVTAADTAMYYCARFSGRPYYGMDVWGQGTTVTVSS VL: LSYELTQPPSVSATPGQRVTISCSGSESNIGSHKVKWYQQFAGAAPRLLIHGNDQRRSGVPDRFSGSKSGTSASLAISGLQSEDEADYYCAAWDDSLYGRVFGGGTKLTVLG",~0.2
3,"Clone M1 #11 (antibody, human IgG4 S228P, lambda, V domains shown) VH: QVQLQQWGAGLLKPSETLSLTCAVYGGSFSGYYWSWIRQPPGKGLEWIGEINHSGSTNYNPSLKSRVTISVDTSKNQFSLRLSSVTAADTAMYYCARFHGRPYYGMDVWGQGTTVTVSS VL: LSYELTQPPSVSATPGQRVTISCSGSESNIGSHKVKWYQQFAGAAPRLLIHGNDQRRRGVPDRFSGSKSGTSASLAISGLQSEDEADYYCAAWDDSLYGRVFGGGTKLTVLG",~0.06
4,"Clone M1 #21 (antibody, human IgG4 S228P, lambda, V domains shown) VH: QVQLQQWGAGLLKPSETLSLTCAVYGGSFSGYYWSWIRQPPGKGLEWIGEINQSGSTNYNPSLKSRVTISVDTSKNQFSLRLSSVTAADTAMYYCARFTGRPYYGMDVWGQGTTVTVSS VL: LSYELTQPPSVSATPGQRVTISCSGSESNIGSHKVKWYQQFAGAAPRLLIHGNDQRFSGVPDRFSGSKSGTSASLAISGLQSEDEADYYCAAWDDSLYGRVFGGGTKLTVLG",~0.08
